These results are taken from patent US10654893B2, “Self-assembling peptide compositions” (3-D MATRIX, LTD., priority 2014, dated 2020).

Data set [1] in a line: Congo Red assay of gel formation in PBS solution (pH 7.4). The data set is classed as physicochemical. Conditions: 0.5%, 1.0%, 1.5%, 2.0% and 2.5%. How it is done:
A Congo Red assay was performed to determine gel formation of peptide compositions in a PBS (Phosphate buffered saline) solution (pH 7.4), as shown in FIG. 1. 100 μl of each gel at selected concentrations were plated on a glass slide. After 30 seconds, 500 μl of 1% Congo Red solution was added around and on top of each of the composition aliquots and then the excess Congo Red solution was wiped off prior to examination. RADA16 (SEQ ID NO:1), IEIK13 (SEQ ID NO:3), and KLD12 (SEQ ID NO:2) were plated at selected concentrations of 0.5%, 1.0%, 1.5%, 2.0% and 2.5%. Visual observation determined the success or failure of gelation at each concentration.

Data set [2] is described as follows: pH of reference peptide compositions in water. Conditions: reference composition in water. The data set is classed as physicochemical. From the text:
Table 2, below, presents pH concentrations observed for reference compositions in which the indicated peptide is solubilized in water at the indicated concentration.

Consider “Arg-Ala-Asp-Ala-Arg-Ala-Asp-Ala-Arg-Ala-Asp-Ala-Arg-Ala-Asp-Ala [RADA16]”, for which the “Gel formation (success or failure of gelation)” value in data set [1] was “gelled at all concentrations”. Further, the pH in data set [2] (Concentration 0.5%) is listed as 2.7; in data set [2] (Concentration 1.0%) it was 2.5; in data set [2] (Concentration 1.5%), 2.5; in data set [2] (Concentration 2.0%), 2.5; in data set [2] (Concentration 2.5%), 2.5.
